Test results published in US20230303694A1 (LAVA THERAPEUTICS N V, published 2023).

B1: 7D12var8-5C8var1(Y105F)-Fc (bispecific antibody, V domains shown)
V domain 1: EVQLVESGGGSVQPGGSLRLSCAASGRTSRSYGMGWFRQAPGKEREFVSGISWRGDSTGYADSVKGRFTISRDNAKNTVDLQMNSLRAEDTAVYYCAAAAGSAWYGTLYEYDYWGQGTLVTVSS
V domain 2: EVQLLESGGGSVQPGGSLRLSCAASGRPFSNYAMSWFRQAPGKEREFVSAISWSGGSTSYADSVKGRFTISRDNSKNTLYLQMNSLRAEDTAVYYCAAQFSGADFGFGRLGIRGYEYDYWGQGTQVTVSS
notes: Heterodimer of two VHH-Fc chains: the anti-EGFR 7D12var8-Fc (hole) and the anti-Vδ2 5C8var1(Y105F)-Fc (knob); The Fc is human IgG1 with L234F/L235E and a modified hinge; also called 7D12var8-5C8var1(Y105F) with Fc region
B2: bispecific VHH 7D12var8-5C8var1-Y105F (bispecific antibody)
chain: EVQLVESGGGSVQPGGSLRLSCAASGRTSRSYGMGWFRQAPGKEREFVSGISWRGDSTGYADSVKGRFTISRDNAKNTVDLQMNSLRAEDTAVYYCAAAAGSAWYGTLYEYDYWGQGTLVTVSSGGGGSEVQLLESGGGSVQPGGSLRLSCAASGRPFSNYAMSWFRQAPGKEREFVSAISWSGGSTSYADSVKGRFTISRDNSKNTLYLQMNSLRAEDTAVYYCAAQFSGADFGFGRLGIRGYEYDYWGQGTQVTVSS

How the values were obtained:
[1] = target: T1, epidermal growth factor receptor (EGFR) on EGFR-expressing tumor cell lines A-431, HCT-116 and HT-29 (human, UniProt P00533 25-1210); test: cell-based ELISA on A-431 cells, anti-IgG1-HRP, signal at 450 nm
T1 construct: whole, on cells; also called EGFR on tumor cells
Experimental: To this end, tumor cells were first seeded at different concentrations on day −1 to reach a concentration of approximately 50000 cells/well on day 0. […] Bound antibodies were then labelled in a secondary incubation step with anti-IgG1-HRP for one hour at 37° C. The secondary antibody binding was then resolved by the addition of 3,3′,5,5′-Tetramethylbenzidine and the colorimetric change induced by the HRP, followed by the addition of H2SO4 to stop the reaction. The optical density (OD) was then measured in a UV spectrometer at a wavelength of 450 nm.

[2] = target: T1, epidermal growth factor receptor (EGFR) …; test: cell-based or functional assay
[3] = target: human Vγ9Vδ2 T cell receptor (TCR) on primary Vγ9Vδ2 T cells (human), Q99603; test: cell-based or functional assay

Binder	EC50 (read off the curve) [1] [pM]	EC50 cytotoxicity (A431 tumor cell kill, 24 h, with Vγ9Vδ2 T cells) [2] [pM]	EC50 degranulation (CD107A+ Vγ9Vδ2 T cells, 4 h, with A431 cells) [3] [pM]
B1	~2000		
B2		2.5	11
